For this assay, the target named is PDF-2180 S ectodomain trimer (PDF-2180 (bat coronavirus, infects Pipisrellus hesperidus) | not stated). The assay is described as follows: cryo-EM structure.

As to “PDF-2180 S ectodomain trimer (domain or fragment)”, the stoichiometry N (in general, a count of units in the complex or per binding partner) was determined as 3.
